Laboratory results from paper PMC3177407.

Assays:
[1] = biological target: integrin alpha3beta1 (Homo sapiens) (UniProt P26006); settings: cited from earlier work
Integrin α3β1 = Integrin α3β1 (UniProt P26006)
Sequence of Integrin α3β1 (P26006 33-1051, chain 1 of 2): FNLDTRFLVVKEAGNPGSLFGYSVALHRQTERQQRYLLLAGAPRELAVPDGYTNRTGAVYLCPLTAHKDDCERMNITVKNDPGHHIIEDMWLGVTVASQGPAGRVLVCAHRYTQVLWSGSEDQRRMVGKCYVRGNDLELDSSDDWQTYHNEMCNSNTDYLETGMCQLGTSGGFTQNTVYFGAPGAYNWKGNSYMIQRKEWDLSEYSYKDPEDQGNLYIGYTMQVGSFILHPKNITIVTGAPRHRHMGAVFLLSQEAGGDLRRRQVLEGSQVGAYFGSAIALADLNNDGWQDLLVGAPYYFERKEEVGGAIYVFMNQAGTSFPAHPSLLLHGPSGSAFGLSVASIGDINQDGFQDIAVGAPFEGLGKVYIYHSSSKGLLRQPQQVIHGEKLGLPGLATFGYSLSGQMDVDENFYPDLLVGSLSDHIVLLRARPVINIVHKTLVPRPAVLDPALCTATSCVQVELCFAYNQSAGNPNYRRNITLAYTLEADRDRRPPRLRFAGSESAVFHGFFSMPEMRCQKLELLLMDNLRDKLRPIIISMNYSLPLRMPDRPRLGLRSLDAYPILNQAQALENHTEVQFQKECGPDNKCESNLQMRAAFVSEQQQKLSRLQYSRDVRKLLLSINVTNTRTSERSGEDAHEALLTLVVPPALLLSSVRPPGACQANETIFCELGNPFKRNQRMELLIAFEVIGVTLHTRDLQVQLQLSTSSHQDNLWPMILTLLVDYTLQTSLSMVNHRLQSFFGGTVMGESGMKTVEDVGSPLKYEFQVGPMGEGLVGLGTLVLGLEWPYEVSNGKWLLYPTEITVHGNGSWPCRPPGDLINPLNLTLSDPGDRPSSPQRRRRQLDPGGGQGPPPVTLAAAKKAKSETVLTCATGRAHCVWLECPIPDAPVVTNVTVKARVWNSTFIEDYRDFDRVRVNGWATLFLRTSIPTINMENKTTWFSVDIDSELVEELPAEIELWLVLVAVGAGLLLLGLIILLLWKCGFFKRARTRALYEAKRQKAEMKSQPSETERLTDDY
Sequence of Integrin α3β1 (P05556 21-728, chain 2 of 2, further chain): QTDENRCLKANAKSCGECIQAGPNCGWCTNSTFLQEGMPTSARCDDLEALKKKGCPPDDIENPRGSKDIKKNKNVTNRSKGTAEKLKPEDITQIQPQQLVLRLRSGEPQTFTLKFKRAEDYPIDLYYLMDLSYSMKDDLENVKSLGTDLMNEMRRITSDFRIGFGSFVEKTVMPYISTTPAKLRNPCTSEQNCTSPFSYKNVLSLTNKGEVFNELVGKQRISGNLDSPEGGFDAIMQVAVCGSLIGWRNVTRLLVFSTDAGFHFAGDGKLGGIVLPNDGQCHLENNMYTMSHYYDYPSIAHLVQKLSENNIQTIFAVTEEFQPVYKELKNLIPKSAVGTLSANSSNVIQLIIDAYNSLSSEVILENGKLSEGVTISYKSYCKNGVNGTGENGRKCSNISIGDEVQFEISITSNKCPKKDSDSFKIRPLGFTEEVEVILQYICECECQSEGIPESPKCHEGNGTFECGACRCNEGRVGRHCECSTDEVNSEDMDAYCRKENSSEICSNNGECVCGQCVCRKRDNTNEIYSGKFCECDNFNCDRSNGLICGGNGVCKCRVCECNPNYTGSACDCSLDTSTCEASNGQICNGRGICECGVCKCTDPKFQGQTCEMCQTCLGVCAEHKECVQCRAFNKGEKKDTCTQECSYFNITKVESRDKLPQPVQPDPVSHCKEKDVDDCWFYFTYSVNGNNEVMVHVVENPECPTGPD

Sequence of integrin alpha3beta1 (Homo sapiens) (P26006 33-991, chain 1 of 2): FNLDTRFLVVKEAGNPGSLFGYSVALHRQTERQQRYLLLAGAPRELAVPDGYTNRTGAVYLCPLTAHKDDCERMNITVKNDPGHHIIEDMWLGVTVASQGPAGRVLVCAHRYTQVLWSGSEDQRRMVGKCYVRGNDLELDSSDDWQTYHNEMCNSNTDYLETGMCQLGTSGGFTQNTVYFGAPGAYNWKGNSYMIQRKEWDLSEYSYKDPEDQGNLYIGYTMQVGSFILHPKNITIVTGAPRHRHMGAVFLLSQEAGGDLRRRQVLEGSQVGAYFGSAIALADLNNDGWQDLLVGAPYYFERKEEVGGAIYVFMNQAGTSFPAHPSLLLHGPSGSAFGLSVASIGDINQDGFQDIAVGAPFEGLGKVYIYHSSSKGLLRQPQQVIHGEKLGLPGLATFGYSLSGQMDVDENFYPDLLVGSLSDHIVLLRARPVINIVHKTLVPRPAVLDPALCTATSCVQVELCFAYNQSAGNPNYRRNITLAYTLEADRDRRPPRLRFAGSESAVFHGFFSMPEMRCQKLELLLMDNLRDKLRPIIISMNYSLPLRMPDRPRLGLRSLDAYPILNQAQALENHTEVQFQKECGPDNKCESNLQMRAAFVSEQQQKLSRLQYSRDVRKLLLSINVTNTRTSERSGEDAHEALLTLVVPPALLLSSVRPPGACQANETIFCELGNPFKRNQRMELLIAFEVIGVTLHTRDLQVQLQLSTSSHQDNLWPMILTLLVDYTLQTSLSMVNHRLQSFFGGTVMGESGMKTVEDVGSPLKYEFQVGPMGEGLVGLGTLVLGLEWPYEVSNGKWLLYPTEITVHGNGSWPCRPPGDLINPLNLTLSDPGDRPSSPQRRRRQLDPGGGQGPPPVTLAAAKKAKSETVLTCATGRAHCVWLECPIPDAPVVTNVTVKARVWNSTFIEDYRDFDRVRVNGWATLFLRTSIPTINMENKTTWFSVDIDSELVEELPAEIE
Sequence of integrin alpha3beta1 (Homo sapiens) (P05556 21-728, chain 2 of 2, further chain): as the sequence (P05556 21-728, chain 2 of 2, further chain) above
Sequence of TIMP-2 (P16035 27-220): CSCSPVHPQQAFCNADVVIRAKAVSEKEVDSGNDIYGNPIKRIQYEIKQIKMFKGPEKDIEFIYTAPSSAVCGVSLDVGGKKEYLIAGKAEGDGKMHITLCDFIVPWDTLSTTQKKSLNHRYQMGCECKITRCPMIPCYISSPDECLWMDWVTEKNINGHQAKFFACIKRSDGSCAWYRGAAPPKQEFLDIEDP

Row | inhibition of VEGF-A-stimulated (10 ng/mL) growth of hMVECs, 100 nM protein (Integrin α3β1) [%] | Substance | Kd [1] [nM]
1 |  | TIMP-2 (from UniProt P16035) | 0.9
2 | 75 | Ala+TIMP-2 (from UniProt P16035 27-220) (natural protein) | 
